Measurements taken from the supplement of paper PMC6379048.

Key:
Assay in all cases: EC50 of free RNA motif oligo competing protein binding to immobilised probe
ZCCHC24 = ZCCHC24 (UniProt Q8N2G6)
Method in brief: (§1)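 Kd was calculated as EC50, taken from a four-parameter log-logistic fit, multiplied by a protein-dependent depletion factor. The assay used HEK293-FT lysate (2.5 mg protein/well) pre-incubated for 1 h at 4°C with free RNA oligos (0 nM to 30 μM), then incubated for 30 min at 4°C with the matching oligos bound through a 5′-amino-C6 linker to NHS-Sepharose beads. Bound proteins were measured by label-free LC-MS/MS and normalised to the control.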

SRSF9 = SRSF9 (UniProt Q13242)
SRSF9, sequence (Q13242 whole entry): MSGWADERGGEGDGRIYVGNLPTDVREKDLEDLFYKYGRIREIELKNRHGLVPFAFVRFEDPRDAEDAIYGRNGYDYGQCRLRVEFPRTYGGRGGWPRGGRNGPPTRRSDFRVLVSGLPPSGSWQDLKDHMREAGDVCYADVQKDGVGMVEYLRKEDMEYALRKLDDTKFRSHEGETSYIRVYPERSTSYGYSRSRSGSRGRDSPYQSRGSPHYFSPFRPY
Method in brief: as §1

CMTR1 = target: T1, CMTR1 (UniProt Q8N1G2)
T1 sequence: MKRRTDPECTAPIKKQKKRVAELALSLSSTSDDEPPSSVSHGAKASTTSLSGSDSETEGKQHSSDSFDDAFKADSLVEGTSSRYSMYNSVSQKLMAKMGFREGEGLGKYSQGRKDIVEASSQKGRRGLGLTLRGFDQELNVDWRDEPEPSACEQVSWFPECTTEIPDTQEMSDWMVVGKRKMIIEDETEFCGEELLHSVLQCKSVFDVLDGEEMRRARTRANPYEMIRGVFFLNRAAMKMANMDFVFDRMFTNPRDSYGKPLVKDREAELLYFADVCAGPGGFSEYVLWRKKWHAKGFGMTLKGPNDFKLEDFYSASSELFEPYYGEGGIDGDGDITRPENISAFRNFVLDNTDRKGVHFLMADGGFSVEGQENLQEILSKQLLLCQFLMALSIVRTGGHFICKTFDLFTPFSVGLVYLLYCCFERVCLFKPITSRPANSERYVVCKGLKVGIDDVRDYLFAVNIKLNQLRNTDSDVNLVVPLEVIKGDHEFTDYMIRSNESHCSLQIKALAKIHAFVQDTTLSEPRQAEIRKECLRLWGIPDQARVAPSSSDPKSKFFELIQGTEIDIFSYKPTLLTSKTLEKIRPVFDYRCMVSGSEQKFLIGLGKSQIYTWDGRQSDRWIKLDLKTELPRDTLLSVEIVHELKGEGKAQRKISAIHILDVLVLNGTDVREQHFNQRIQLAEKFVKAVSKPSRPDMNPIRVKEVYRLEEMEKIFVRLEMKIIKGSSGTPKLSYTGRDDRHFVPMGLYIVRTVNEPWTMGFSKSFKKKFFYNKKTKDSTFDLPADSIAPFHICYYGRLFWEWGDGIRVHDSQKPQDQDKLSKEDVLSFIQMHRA
Method in brief: as §1

RBM17 = target: T2, RBM17 (UniProt Q96I25)
T2 sequence: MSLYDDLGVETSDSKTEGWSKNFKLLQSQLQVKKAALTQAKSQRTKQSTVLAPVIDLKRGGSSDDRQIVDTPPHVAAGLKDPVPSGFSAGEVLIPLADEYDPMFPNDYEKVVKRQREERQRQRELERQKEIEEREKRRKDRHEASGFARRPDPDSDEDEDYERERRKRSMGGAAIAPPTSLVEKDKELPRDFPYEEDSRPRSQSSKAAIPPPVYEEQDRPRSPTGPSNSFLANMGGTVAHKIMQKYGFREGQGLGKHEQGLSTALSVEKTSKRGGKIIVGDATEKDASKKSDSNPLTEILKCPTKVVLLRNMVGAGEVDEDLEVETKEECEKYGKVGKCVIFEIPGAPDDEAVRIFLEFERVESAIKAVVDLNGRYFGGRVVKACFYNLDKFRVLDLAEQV
Method in brief: as §1

MSI2 = MSI2 (UniProt Q96DH6)
MSI2, sequence (Q96DH6 whole entry): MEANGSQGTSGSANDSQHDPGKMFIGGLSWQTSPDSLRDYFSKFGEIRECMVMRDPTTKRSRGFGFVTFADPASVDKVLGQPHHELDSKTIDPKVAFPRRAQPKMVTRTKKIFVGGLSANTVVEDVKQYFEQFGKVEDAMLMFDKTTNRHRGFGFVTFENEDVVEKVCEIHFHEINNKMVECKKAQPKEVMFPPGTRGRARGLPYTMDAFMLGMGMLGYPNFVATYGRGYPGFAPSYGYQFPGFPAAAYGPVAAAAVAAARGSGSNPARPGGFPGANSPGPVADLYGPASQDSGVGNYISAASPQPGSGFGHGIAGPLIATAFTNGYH
Method in brief: as §1

TOE1 = TOE1 (UniProt Q96GM8)
Method in brief: as §1

TFIP11 = target: T3, TFIP11 (UniProt Q9UBB9)
T3 sequence: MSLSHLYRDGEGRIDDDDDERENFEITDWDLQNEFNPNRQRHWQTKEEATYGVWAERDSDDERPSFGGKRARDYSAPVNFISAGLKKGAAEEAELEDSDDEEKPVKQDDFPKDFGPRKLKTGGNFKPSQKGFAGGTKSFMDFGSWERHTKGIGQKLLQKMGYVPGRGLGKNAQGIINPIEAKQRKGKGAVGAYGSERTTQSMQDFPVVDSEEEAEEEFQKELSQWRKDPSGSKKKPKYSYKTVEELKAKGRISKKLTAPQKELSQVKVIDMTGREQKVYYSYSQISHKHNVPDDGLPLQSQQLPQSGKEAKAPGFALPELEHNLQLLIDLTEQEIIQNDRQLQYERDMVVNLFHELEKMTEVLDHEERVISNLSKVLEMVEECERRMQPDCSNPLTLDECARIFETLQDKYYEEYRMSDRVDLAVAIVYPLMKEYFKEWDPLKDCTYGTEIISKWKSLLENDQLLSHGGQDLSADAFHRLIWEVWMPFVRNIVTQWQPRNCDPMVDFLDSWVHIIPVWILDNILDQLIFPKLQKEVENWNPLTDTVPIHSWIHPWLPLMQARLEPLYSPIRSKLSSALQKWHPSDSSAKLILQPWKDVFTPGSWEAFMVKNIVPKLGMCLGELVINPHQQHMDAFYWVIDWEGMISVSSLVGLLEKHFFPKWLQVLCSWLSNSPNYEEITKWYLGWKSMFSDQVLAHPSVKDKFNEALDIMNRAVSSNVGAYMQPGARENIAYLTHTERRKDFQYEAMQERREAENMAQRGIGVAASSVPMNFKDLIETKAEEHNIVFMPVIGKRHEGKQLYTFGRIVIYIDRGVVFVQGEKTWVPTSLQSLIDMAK
Method in brief: as §1

RPS20 = RPS20 (UniProt P60866)
Method in brief: as §1

SRSF3 = target: T4, SRSF3 (UniProt P84103)
T4 sequence: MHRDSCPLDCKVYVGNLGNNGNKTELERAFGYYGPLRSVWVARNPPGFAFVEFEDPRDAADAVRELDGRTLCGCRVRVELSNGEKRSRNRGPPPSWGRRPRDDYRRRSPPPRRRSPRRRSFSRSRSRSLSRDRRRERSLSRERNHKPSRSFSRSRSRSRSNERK
Method in brief: as §1

ZCCHC24, sequence (Q8N2G6 whole entry): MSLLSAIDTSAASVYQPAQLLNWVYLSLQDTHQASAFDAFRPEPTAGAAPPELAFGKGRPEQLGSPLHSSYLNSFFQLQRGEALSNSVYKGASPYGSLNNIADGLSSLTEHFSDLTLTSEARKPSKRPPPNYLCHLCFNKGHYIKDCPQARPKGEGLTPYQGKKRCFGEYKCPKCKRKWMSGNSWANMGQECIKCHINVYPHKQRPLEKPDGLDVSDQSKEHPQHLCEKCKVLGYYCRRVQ

Sequence | EC50 (ZCCHC24) [nM] | EC50 (SRSF9) [nM] | EC50 (CMTR1) [nM] | EC50 (RBM17) [nM] | EC50 (MSI2) [nM] | EC50 (TOE1) [nM] | EC50 (TFIP11) [nM] | EC50 (RPS20) [nM] | EC50 (SRSF3) [nM]
UAUUUAU | 2520 | 8030 | 1200 | 93.1 | 803 | 1420 | 2390 | – | –
CUGUCCU | – | 4530 | – | – | – | – | – | 171 | 2620
AAUAAA | 545 | – | 298 | 2490 | 826 | 2110 | 2350 | 3800 | 3030
